# Assay results from patent US20090318535.
# Target: human BimEL (Bcl-2-Interacting Mediator of cell death, Extra Long isoform)
protein,measurement,value
human RSK1 (p90rsk/MAPKAP kinase-1) (protein) MEQDPKPPRLRLWALIPWLPRKQRPRISQTSLPVPGPGSGPQRDSDEGVLKEISITHHVKAGSEKADPSHFELLKVLGQGSFGKVFLVRKVTRPDSGHLYAMKVLKKATLKVRDRVRTKMERDILADVNHPFVVKLHYAFQTEGKLYLILDFLRGGDLFTRLSKEVMFTEEDVKFYLAELALGLDHLHSLGIIYRDLKPENILLDEEGHIKLTDFGLSKEAIDHEKKAYSFCGTVEYMAPEVVNRQGHSHSADWWSYGVLMFEMLTGSLPFQGKDRKETMTLILKAKLGMPQFLSTEAQSLLRALFKRNPANRLGSGPDGAEEIKRHVFYSTIDWNKLYRREIKPPFKPAVAQPDDTFYFDTEFTSRTPKDSPGIPPSAGAHQLFRGFSFVATGLMEDDGKPRAPQAPLHSVVQQLHGKNLVFSDGYVVKETIGVGSYSECKRCVHKATNMEYAVKVIDKSKRDPSEEIEILLRYGQHPNIITLKDVYDDGKHVYLVTELMRGGELLDKILRQKFFSEREASFVLHTIGKTVEYLHSQGVVHRDLKPSNILYVDESGNPECLRICDFGFAKQLRAENGLLMTPCYTANFVAPEVLKRQGYDEGCDIWSLGILLYTMLAGYTPFANGPSDTPEEILTRIGSGKFTLSGGNWNTVSETAKDLVSKMLHVDPHQRLTAKQVLQHPWVTQKDKLPQSQLSHQDLQLVKGAMAATYSALNSSKPTPQLKPIESSILAQRRVRKLPSTTL,in vitro kinase assay: phosphorylation of BimEL on serines 93/94/98,RSK1 phosphorylates BimEL in vitro on serines 93/94/98 (the degron serines)
